In the supplement of paper PMC10065799, “High-throughput profiling of sequence recognition by tyrosine kinases and SH2 domains using bacterial peptide display” (eLife, 2023):

How the values were obtained:
EPHB2 = EPHB2 (UniProt P29323); experiment: phosphorylation enrichment, bacterial display (enrichment ratio); higher = better substrate or ligand; peptides without Tyr show the background
EPHB1 = EPHB1 (UniProt P54762); experiment: as above
AncSZ = experiment: as above
c-Src = experiment: as above
Jak2 = Jak2 (UniProt O60674); experiment: as above
Chain of Jak2 (O60674 whole entry, looked up): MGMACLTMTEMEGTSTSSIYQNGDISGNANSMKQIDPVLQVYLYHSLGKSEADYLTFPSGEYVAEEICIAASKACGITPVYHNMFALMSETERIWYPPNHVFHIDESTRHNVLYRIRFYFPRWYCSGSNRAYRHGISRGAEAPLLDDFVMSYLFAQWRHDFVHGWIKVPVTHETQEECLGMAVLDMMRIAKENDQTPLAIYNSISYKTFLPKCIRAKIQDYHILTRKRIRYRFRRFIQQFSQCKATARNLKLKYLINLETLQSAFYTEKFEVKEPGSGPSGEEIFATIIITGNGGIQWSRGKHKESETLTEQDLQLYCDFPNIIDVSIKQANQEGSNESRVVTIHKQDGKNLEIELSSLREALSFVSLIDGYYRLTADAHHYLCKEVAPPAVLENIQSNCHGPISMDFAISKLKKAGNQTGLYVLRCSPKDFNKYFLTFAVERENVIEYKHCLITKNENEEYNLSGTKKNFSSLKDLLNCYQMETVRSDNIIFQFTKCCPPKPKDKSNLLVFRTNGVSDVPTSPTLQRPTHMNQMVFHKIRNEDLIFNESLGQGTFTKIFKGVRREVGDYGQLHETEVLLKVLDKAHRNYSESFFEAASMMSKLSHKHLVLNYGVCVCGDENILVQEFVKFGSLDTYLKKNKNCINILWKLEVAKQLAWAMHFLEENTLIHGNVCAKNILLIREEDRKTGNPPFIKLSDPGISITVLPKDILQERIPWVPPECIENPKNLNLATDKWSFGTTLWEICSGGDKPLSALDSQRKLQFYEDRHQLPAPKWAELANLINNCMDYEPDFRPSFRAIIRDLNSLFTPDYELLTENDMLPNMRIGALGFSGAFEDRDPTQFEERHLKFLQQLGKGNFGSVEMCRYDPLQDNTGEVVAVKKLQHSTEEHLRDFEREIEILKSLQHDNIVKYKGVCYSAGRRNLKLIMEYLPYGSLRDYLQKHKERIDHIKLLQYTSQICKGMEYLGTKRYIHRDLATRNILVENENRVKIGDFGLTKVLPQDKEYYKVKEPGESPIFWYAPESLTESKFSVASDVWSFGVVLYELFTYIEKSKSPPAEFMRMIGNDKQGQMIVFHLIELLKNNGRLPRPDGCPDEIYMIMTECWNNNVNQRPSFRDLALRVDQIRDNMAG

FGFR1 = FGFR1 (UniProt P11362); experiment: as above
Fyn = Fyn (UniProt P06241); experiment: as above
Chain of Fyn (P06241 whole entry, looked up): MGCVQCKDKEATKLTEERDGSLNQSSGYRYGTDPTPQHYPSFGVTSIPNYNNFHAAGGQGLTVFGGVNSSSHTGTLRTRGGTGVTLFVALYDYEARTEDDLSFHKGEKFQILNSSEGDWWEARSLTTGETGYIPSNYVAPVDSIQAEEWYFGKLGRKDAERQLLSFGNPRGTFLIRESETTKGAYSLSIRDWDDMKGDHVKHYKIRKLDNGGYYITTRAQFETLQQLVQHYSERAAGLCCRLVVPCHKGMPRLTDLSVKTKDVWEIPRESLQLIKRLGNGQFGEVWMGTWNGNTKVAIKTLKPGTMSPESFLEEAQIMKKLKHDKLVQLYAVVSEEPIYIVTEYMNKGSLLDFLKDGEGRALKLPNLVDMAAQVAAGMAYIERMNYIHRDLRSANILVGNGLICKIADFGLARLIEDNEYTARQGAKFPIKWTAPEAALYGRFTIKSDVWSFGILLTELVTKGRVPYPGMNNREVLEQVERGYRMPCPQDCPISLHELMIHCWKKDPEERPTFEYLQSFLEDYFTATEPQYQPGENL

c-Abl (mouse) = experiment: as above
FGFR3 = FGFR3 (UniProt P22607); experiment: as above
Fes = Fes (UniProt P07332); experiment: as above
Hck = Hck (UniProt P08631); experiment: as above
Chain of Hck (P08631 whole entry, looked up): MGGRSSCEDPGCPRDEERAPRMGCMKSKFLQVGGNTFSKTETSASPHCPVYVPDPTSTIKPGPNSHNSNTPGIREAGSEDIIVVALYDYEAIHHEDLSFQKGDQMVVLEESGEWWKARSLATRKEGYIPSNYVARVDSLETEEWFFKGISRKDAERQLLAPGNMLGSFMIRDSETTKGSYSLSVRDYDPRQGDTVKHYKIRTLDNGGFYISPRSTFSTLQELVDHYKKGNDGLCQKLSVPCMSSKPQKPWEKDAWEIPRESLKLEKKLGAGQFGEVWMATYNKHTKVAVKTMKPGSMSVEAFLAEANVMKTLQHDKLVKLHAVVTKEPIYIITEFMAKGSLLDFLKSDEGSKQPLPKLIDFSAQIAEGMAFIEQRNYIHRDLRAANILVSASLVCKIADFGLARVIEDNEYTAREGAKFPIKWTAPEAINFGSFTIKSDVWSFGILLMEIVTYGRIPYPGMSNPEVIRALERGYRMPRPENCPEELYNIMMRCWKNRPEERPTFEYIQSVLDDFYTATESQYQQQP

Fer (mouse) = experiment: as above
MERTK = MERTK (UniProt Q12866); experiment: as above
c-Src SH2 = experiment: SH2 binding enrichment of the phosphorylated peptide, bacterial display (enrichment ratio); higher = better substrate or ligand; peptides without Tyr show the background
Grb2 SH2 = Grb2 SH2 (UniProt P62993); experiment: as above
Chain of Grb2 SH2 (P62993 whole entry, looked up): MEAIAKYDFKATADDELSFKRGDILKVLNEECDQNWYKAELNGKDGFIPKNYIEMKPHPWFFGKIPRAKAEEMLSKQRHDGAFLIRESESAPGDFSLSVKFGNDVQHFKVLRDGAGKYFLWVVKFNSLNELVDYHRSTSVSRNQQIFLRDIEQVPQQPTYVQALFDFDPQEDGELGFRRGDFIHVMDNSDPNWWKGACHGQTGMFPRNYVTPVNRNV

SHP2-C SH2 = experiment: as above
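For SH2 binding enrichment of the phosphorylated peptide, bacterial display in this document: peptide library displayed on the E. coli surface as eCPX fusions, selected cells deep-sequenced, score is each peptide's frequency after selection divided by its frequency in the input.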
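For phosphorylation enrichment, bacterial display in this document: 11-residue human phosphosite peptides and single-mutation variants displayed on the E. coli surface, counted by deep sequencing, each peptide's frequency after selection divided by its frequency in the unselected input library; frequency after pTyr selection over input frequency; kinase dosed for 20-30% of maximal phosphorylation in three min.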

Chain of EPHB2 (P29323 whole entry, looked up): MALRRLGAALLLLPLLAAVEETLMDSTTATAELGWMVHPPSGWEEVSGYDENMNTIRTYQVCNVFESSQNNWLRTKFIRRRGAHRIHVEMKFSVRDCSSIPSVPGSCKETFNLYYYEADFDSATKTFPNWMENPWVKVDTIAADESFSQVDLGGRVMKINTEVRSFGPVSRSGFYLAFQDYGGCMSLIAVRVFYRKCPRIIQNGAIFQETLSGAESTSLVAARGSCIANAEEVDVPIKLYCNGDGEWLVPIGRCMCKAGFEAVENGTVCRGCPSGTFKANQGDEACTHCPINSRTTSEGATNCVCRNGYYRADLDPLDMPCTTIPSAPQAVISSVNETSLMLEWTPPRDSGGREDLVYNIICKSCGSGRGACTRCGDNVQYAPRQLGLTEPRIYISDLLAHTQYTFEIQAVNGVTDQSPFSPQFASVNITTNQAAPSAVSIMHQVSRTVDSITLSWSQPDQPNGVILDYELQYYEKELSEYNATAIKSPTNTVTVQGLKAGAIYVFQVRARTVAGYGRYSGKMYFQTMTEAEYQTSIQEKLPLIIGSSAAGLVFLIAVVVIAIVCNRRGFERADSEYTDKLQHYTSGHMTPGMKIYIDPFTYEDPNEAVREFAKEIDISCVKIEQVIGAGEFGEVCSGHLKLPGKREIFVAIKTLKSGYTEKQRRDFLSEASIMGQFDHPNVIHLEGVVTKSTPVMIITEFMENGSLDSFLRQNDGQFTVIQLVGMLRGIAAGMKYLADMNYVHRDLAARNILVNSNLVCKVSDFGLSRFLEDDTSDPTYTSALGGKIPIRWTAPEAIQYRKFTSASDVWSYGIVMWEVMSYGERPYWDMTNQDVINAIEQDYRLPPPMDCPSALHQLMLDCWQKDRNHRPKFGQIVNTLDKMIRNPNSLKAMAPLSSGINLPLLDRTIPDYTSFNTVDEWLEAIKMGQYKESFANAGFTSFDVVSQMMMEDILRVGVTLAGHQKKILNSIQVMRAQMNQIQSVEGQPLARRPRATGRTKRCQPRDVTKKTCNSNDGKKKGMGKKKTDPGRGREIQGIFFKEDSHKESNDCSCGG
Chain of EPHB1 (P54762 whole entry, looked up): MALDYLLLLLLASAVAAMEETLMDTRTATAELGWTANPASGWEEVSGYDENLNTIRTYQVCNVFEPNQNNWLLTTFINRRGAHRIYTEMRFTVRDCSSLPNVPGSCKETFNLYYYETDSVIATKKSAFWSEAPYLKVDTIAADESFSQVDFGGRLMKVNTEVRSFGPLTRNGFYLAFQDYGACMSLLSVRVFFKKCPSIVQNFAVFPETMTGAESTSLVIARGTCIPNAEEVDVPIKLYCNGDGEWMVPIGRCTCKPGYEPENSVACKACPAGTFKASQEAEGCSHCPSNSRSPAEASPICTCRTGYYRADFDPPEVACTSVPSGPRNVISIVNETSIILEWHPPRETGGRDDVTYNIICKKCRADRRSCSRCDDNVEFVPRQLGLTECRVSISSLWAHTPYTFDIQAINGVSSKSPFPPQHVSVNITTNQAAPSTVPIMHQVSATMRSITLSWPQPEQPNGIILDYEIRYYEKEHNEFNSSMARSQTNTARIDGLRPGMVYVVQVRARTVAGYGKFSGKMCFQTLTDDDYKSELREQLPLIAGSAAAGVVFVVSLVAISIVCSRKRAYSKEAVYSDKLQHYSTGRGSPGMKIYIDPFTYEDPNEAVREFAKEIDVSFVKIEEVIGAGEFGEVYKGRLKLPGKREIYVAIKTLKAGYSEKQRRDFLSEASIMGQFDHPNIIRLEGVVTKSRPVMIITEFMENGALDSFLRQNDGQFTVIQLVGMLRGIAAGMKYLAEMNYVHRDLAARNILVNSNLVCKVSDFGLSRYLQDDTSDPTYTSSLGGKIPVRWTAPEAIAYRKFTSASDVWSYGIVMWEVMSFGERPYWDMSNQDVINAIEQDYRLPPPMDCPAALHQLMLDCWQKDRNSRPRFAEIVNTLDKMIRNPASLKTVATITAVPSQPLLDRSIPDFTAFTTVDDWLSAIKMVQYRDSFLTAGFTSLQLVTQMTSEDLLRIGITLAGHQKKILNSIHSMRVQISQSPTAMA

Row | Sequence | phosphorylation enrichment (EPHB2) | phosphorylation enrichment (EPHB1) | phosphorylation enrichment (AncSZ) | phosphorylation enrichment (c-Src) | phosphorylation enrichment (Jak2) | phosphorylation enrichment (FGFR1) | phosphorylation enrichment (Fyn) | phosphorylation enrichment (c-Abl (mouse)) | phosphorylation enrichment (FGFR3) | phosphorylation enrichment (Fes) | phosphorylation enrichment (Hck) | phosphorylation enrichment (Fer (mouse)) | phosphorylation enrichment (MERTK) | SH2 binding enrichment (c-Src SH2) | SH2 binding enrichment (Grb2 SH2) | SH2 binding enrichment (SHP2-C SH2)
1 | QMRLRYLAAEE [CEP120_Y884] | 0.643 | 0.741 | 1.11 | 0.647 | 1.3 | 0.931 | 0.845 | 0.916 | 0.874 | 1.41 | 0.776 | 0.563 | 0.423 | 0.445 | 0.664 | 0.982
2 | AHLTEYLSTHF [UQCRC1_Y219_D215H_YF] | 0.499 | 0.471 | 0.902 | 0.525 | 0.837 | 0.529 | 0.471 | 0.676 | 0.577 | 0.915 | 0.526 | 0.44 | 0.408 | 0.412 | 0.811 | 0.809
3 | LVPPRYARSEI [PKP2_Y194] | 0.72 | 0.597 | 1.26 | 0.394 | 0.495 | 0.74 | 0.631 | 0.345 | 0.941 | 1.34 | 0.783 | 0.697 | 0.528 | 0.538 | 0.771 | 0.787
4 | ATARPYSPFII [LRP5_Y1528_R1529S_YF] | 0.474 | 0.403 | 0.627 | 0.633 | 0.508 | 0.409 | 0.504 | 0.467 | 0.618 | 0.735 | 0.594 | 9.77 | 0.552 | 0.715 | 1.04 | 0.75
5 | AEVIWYKGDEV | 0.572 | 0.707 | 1.13 | 0.474 | 1.42 | 0.433 | 0.394 | 1.15 | 0.784 | 1.41 | 0.602 | 0.491 | 0.399 | 0.475 | 0.822 | 0.684
6 | QEIATYRPLLE [KRT14_Y415_R417P] | 0.65 | 0.791 | 1.02 | 0.705 | 1.04 | 0.78 | 0.961 | 0.922 | 0.834 | 1.24 | 0.674 | 0.643 | 0.504 | 0.422 | 0.647 | 0.64
7 | DPADRYLTEQY [CDKL5_Y286_C291Y] | 0.487 | 0.398 | 0.899 | 0.477 | 0.965 | 0.454 | 0.478 | 0.806 | 0.597 | 1.15 | 0.497 | 0.39 | 0.402 | 0.429 | 1 | 0.944
8 | AAQNCYKVTNG [TPI1_Y105] | 0.421 | 0.37 | 0.725 | 0.356 | 0.665 | 0.523 | 0.411 | 0.738 | 0.536 | 0.905 | 0.408 | 0.391 | 0.411 | 0.594 | 0.852 | 0.543
9 | TNEYEYDELIV [TGM1_Y136_D132N] | 0.975 | 0.814 | 1.45 | 0.981 | 1.29 | 0.809 | 0.952 | 0.962 | 0.925 | 1.23 | 0.769 | 0.593 | 0.525 | 0.84 | 0.798 | 0.854
10 | GCKNHYDKDKP [THAP1_Y14_R13H] | 0.521 | 0.396 | 0.583 | 0.445 | 0.616 | 0.555 | 0.423 | 0.736 | 0.562 | 1.02 | 0.411 | 0.521 | 0.504 | 0.845 | 1.11 | 0.928
11 | VNLVLHLSIAK [FBXO15_Y496_Y496H] | 0.609 | 0.583 | 1.15 | 0.446 | 1.36 | 0.476 | 0.492 | 0.88 | 0.85 | 1.36 | 0.588 | 0.799 | 0.391 | 0.351 | 0.652 | 0.511
12 | EPYELYCEMGS [CBL_Y371_Q367P] | 6.42 | 5.73 | 3.71 | 4.82 | 1.61 | 3.54 | 4.13 | 2.36 | 3.14 | 1.74 | 4.22 | 3.52 | 3.54 | 0.695 | 1.11 | 0.564
13 | DGTGHYLGNAC [GATA5_Y208_C210G] | 0.456 | 0.471 | 0.624 | 0.311 | 0.548 | 0.421 | 0.347 | 0.554 | 0.474 | 0.727 | 0.399 | 0.4 | 0.357 | 0.492 | 0.966 | 0.561
14 | KDHPDYKYQPR [SOX10_Y171] | 0.381 | 0.362 | 0.668 | 0.412 | 0.509 | 0.492 | 0.458 | 0.687 | 0.481 | 0.595 | 0.463 | 0.435 | 0.387 | 0.619 | 1.04 | 0.77
15 | IGEGTYGQVYK [CDK13_Y716] | 1.59 | 0.889 | 0.605 | 9.38 | 0.822 | 0.553 | 13.5 | 0.593 | 0.508 | 0.822 | 11.8 | 0.813 | 0.714 | 0.471 | 0.667 | 0.944
16 | NFFDTYIKTCL [IQGAP2_Y1445_YF] | 0.731 | 0.736 | 1.3 | 0.54 | 1.34 | 0.508 | 0.456 | 0.843 | 0.815 | 1.34 | 0.587 | 0.555 | 0.496 | 0.528 | 0.85 | 0.752
